Assays:
[1] = molecular target: T1, 4H2931-AA; test: two-hybrid library CCmax; conditions: mean of both orientations;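 also: natural log of median RNA to DNA barcode read ratio; higher means stronger binding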
T1 chain: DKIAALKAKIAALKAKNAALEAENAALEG

[2] = molecular target: T2, 4H2592-AA; test: two-hybrid library CCmax; conditions: mean of both orientations;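 also: natural log of median RNA to DNA barcode read ratio; higher means stronger binding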
T2 chain: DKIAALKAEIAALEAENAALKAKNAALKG

[3] = molecular target: T3, 4H2466-AA; test: two-hybrid library CCmax; conditions: mean of both orientations;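 also: natural log of median RNA to DNA barcode read ratio; higher means stronger binding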
T3 chain: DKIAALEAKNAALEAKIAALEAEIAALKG

[4] = molecular target: T4, 4H_APH; test: two-hybrid library CCmax;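 also: natural log of median RNA to DNA barcode read ratio; higher means stronger binding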
T4 chain: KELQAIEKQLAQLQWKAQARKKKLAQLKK

[5] = molecular target: T5, 4H3438-AA; test: two-hybrid library CCmax; conditions: mean of both orientations;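 also: natural log of median RNA to DNA barcode read ratio; higher means stronger binding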
T5 chain: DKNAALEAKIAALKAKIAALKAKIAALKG

[6] = molecular target: T6, 4H406-AA; test: two-hybrid library CCmax; conditions: mean of both orientations;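 also: natural log of median RNA to DNA barcode read ratio; higher means stronger binding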
T6 chain: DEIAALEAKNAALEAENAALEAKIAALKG

[7] = molecular target: T7, 4H1828-AA; test: two-hybrid library CCmax
T7 chain: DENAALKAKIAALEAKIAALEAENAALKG

[8] = molecular target: 4H_GCN4; test: two-hybrid library CCmax
[9] = molecular target: T8, 4H347-AA; test: two-hybrid library CCmax; conditions: mean of both orientations
T8 chain: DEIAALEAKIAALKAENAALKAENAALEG

[10] = molecular target: T9, 4H249-AA; test: two-hybrid library CCmax; conditions: mean of both orientations
T9 chain: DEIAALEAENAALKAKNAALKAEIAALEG

[11] = molecular target: T10, 4H56-AA; test: two-hybrid library CCmax; conditions: mean of both orientations
T10 chain: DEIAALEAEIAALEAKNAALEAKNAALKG

[12] = molecular target: T11, 4H2343-AA; test: two-hybrid library CCmax; conditions: mean of both orientations
T11 chain: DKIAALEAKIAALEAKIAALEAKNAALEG

[13] = molecular target: T12, 4H2732-AA; test: two-hybrid library CCmax; conditions: mean of both orientations
T12 chain: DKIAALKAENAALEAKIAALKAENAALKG

[14] = molecular target: T13, 4H2124-AA; test: two-hybrid library CCmax; conditions: mean of both orientations
T13 chain: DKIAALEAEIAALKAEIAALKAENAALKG

[15] = molecular target: T14, 4H_BCR; test: two-hybrid library CCmax; conditions: mean of both orientations
T14 chain: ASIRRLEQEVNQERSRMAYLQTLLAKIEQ

[16] = molecular target: T15, 4H3001-AA; test: two-hybrid library CCmax; conditions: mean of both orientations
T15 chain: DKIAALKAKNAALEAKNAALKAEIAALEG

[17] = molecular target: T16, 4H2253-AA; test: two-hybrid library CCmax; conditions: mean of both orientations
T16 chain: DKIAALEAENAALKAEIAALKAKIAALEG

[18] = molecular target: T17, 4H452-AA; test: two-hybrid library CCmax; conditions: mean of both orientations
T17 chain: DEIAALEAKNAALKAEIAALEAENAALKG

[19] = molecular target: T18, 4H2330-AA; test: two-hybrid library CCmax; conditions: mean of both orientations
T18 chain: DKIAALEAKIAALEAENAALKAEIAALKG

[20] = molecular target: GCN2_T; test: two-hybrid library CCmax
[21] = molecular target: T19, 4H3015-AA; test: two-hybrid library CCmax; conditions: mean of both orientations
T19 chain: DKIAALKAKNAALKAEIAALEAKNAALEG

[22] = molecular target: T20, 4H3073-AA; test: two-hybrid library CCmax; conditions: mean of both orientations
T20 chain: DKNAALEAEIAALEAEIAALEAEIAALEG

[23] = molecular target: T21, 4H1930-AA; test: two-hybrid library CCmax; conditions: mean of both orientations
T21 chain: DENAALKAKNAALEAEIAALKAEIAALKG

[24] = molecular target: T22, 4H2774-AA; test: two-hybrid library CCmax; conditions: mean of both orientations
T22 chain: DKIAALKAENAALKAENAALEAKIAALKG

[25] = molecular target: T23, 4H2165-AA; test: two-hybrid library CCmax; conditions: mean of both orientations
T23 chain: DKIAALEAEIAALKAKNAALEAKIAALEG

[26] = molecular target: T24, 4H2760-bA; test: two-hybrid library CCNG1
T24 chain: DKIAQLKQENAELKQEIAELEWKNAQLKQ

[27] = molecular target: T25, 4H2931-bA; test: two-hybrid library CCNG1
T25 chain: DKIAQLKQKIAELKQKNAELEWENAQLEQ

[28] = molecular target: T26, 4H3041-bA; test: two-hybrid library CCNG1
T26 chain: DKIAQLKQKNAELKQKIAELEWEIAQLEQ

[29] = molecular target: T27, 4H3381-bA; test: two-hybrid library CCNG1
T27 chain: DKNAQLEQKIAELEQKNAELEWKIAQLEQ

[30] = molecular target: T28, P6bH1; test: two-hybrid library CCNG1
T28 chain: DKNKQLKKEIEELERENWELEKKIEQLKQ

[31] = molecular target: T29, 4H949-bA; test: two-hybrid library CCNG1
T29 chain: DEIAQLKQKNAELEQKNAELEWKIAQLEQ

[32] = molecular target: T30, 4H264-bA; test: two-hybrid library CCNG1
T30 chain: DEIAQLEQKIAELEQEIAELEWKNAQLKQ

[33] = molecular target: T31, 4H349-bA; test: two-hybrid library CCNG1
T31 chain: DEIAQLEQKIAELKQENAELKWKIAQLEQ

[34] = molecular target: T32, 4H730-bA; test: two-hybrid library CCNG1
T32 chain: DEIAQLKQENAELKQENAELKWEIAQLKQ

[35] = molecular target: T33, 4H2444-bA; test: two-hybrid library CCNG1
T33 chain: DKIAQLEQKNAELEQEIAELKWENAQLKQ

[36] = molecular target: T34, 4H2518-bA; test: two-hybrid library CCNG1
T34 chain: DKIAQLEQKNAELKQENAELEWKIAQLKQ

[37] = molecular target: T35, 4H932-bA; test: two-hybrid library CCNG1
T35 chain: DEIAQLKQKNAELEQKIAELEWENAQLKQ

[38] = molecular target: T36, 4H3364-bA; test: two-hybrid library CCNG1
T36 chain: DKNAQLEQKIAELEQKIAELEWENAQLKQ

[39] = molecular target: T37, 4H2859-bA; test: two-hybrid library CCNG1
T37 chain: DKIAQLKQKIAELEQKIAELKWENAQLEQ

[40] = molecular target: T38, 4H796-bA; test: two-hybrid library CCNG1
T38 chain: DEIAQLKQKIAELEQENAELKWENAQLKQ

[41] = molecular target: T39, 4H3297-bA; test: two-hybrid library CCNG1
T39 chain: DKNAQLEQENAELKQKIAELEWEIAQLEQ

[42] = molecular target: T40, 4H56-bA; test: two-hybrid library CCNG1
T40 chain: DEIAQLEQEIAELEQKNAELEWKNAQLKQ

[43] = molecular target: T41, 4H2585-bA; test: two-hybrid library CCNG1
T41 chain: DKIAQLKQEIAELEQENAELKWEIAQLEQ

[44] = molecular target: T42, 4H2253-bA; test: two-hybrid library CCNG1
T42 chain: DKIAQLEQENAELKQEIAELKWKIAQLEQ

[45] = molecular target: T43, 4H235-bA; test: two-hybrid library CCNG1
T43 chain: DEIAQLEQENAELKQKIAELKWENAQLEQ

Sequence of 4H_GCN4 (chain, as listed by the source): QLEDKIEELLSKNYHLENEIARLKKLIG

DENAALKAKIAALEAKIAALEAENAALKG [4H1828-AA]
interaction score [1]: -2.02
interaction score [2]: -0.581
interaction score [3]: -1.4
interaction score [4]: -1.13
interaction score [5]: -1.01
interaction score [6]: -1.44
interaction score [7]: 1.34
interaction score [8]: -2.2
interaction score [9]: -0.947
interaction score [10]: -1.5
interaction score [11]: -1.03
interaction score [12]: -1.69
interaction score [13]: -1.51
interaction score [14]: -1.65
interaction score [15]: -2.28
interaction score [16]: -1.55
interaction score [17]: -1.32
interaction score [18]: -1.35
interaction score [19]: -1.45
interaction score [20]: -2.49
interaction score [21]: -1.83
interaction score [22]: -1.08
interaction score [23]: -1.5
interaction score [24]: -1.37
interaction score [25]: -1.37

DKIAQLEQENAELKQEIAELKWKIAQLEQ [4H2253-bA]
interaction score [26]: 0.778
interaction score [27]: -0.566
interaction score [28]: 0.651
interaction score [29]: -0.743
interaction score [30]: -1.05
interaction score [31]: -0.968
interaction score [32]: -0.996
interaction score [33]: -0.459
interaction score [34]: -0.707
interaction score [35]: 0.026
interaction score [36]: 0.247
interaction score [37]: -0.529
interaction score [38]: -0.504
interaction score [39]: -0.839
interaction score [40]: -1.65
interaction score [41]: 0.145
interaction score [42]: -0.0723
interaction score [43]: -0.557
interaction score [44]: 1.28
interaction score [45]: 0.641

— PMC10397247
